Experimental data taken from patent US7344856.
Entries after “also recorded” stand apart in the source; their conditions may differ.

Columns and labels:
[1] = target: fusion protein expressed by pG117S4HompRHKR
Dynorphine A, P01213 = target: T1, Dynorphine A, P01213
T1 chain: YGGFLRRIRPKLKWDNQ

[2] = target: fusion protein PRhANP, P01160
[3] = target: fusion protein PRhCT, P01258
Sequence of fusion protein PRhCT, P01258 (P01258 other isoform, or with tags, fused parts or gaps): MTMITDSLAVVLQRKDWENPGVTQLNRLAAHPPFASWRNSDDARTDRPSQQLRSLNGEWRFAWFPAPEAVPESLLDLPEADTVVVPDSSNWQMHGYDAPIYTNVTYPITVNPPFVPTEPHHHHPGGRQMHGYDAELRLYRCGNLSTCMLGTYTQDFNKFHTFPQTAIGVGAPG

Sequence of fusion protein PRhANP, P01160 (P01160 other isoform, or with tags, fused parts or gaps): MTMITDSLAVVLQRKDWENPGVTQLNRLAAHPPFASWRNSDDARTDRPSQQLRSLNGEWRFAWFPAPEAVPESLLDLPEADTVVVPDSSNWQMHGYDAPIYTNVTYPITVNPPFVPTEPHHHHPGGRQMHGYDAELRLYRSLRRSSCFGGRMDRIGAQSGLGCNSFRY

B1: E. coli OmpT protease (purified OmpT protease specimen) (protein)
chain: STETLSFTPDNINADISLGTLSGKTKERVYLAEEGGRKVSQLDWKFNNAAIIKGAINWDLMPQISIGAAGWTTLGSRGGNMVDQDWMDSSNPGTWTDESRHPDTQLNYANEFDLNIKGWLLNEPNYRLGLMAGYQESRYSFTARGGSYIYSSEEGFRDDIGSFPNGERAIGYKQRFKMPYIGLTGSYRYEDFELGGTFKYSGWVESSDNDEHYDPGKRITYRSKVKDQNYYSVAVNAGYYVTPNAKVYVEGAWNRVTNKKGNTSLYDHNNNTSDYSKNGAGIENYNFITTAGLKYTF
- Relative amount of 4.9 kDa peptide (HPLC; OmpT 0.1 U/ml, 25 C, 60 min) (relative to PRR = 100) (fusion protein PRR-6K): 1400
- cleavage by OmpT protease (SDS-PAGE; OmpT 0.1 U/ml) (fusion protein PRR-6K): the cleavage by OmpT protease was observed in all of the fusion proteins
- Relative amount of 4.9 kDa peptide (HPLC; 25 C, 60 min, pH 7.0) (relative to PRR = 100) (fusion protein PRR-2A): 150
- cleavage by OmpT protease (SDS-PAGE) (fusion protein PRR-2A): the cleavage by OmpT protease was confirmed in the fusion proteins other than PRR-1A
- cleavage efficiency by OmpT protease (fusion protein PRA): Alanine and serine were employed because they showed relatively high cleavage efficiency in Example 3; also recorded: Alanine and cysteine were selected because they provided relatively high cleavage efficiency in Example 3
- Relative amount of 4.9 kDa peptide (HPLC; 25 C, 60 min, pH 7.0) (relative to PRR = 100) (fusion protein PRR-4A): 24
- Relative amount of 4.9 kDa peptide (HPLC; OmpT 2.0 U/ml, 25 C, 60 min) (relative to PRR = 100) (fusion protein PRR-4A): 49
- cleavage by OmpT protease (SDS-PAGE) (fusion protein PRR-4A): the cleavage by OmpT protease was confirmed in the fusion proteins other than PRR-1A
- cleavage by OmpT protease (SDS-PAGE; OmpT 2.0 U/ml) (fusion protein PRR-4A): the cleavage by OmpT protease was observed in all of the fusion proteins
- Relative amount of 4.9 kDa peptide (HPLC; 25 C, 60 min, pH 7.0) (relative to PRR = 100) (fusion protein PRR-3A): 44
- cleavage by OmpT protease (SDS-PAGE) (fusion protein PRR-3A): the cleavage by OmpT protease was confirmed in the fusion proteins other than PRR-1A
- Relative amount of 4.9 kDa peptide (HPLC; OmpT 2.0 U/ml, 25 C, 60 min) (relative to PRR = 100) (fusion protein PRR-4N): 48
- cleavage by OmpT protease (SDS-PAGE; OmpT 2.0 U/ml) (fusion protein PRR-4N): the cleavage by OmpT protease was observed in all of the fusion proteins
- Relative amount of 4.9 kDa peptide (HPLC; OmpT 2.0 U/ml, 25 C, 60 min) (relative to PRR = 100) (fusion protein PRR-4K): 96
- cleavage by OmpT protease (SDS-PAGE; OmpT 2.0 U/ml) (fusion protein PRR-4K): the cleavage by OmpT protease was observed in all of the fusion proteins
- cleavage at sites inside the α-hANP moiety (fusion protein RRhANP): arginine-arginine alone was slightly cleaved, among the four sites (arginine-arginine, arginine-methionine, arginine-isoleucine and arginine-tyrosine) existing in α-hANP molecule ... while the other bonds were scarcely cleaved
- cleavage by OmpT protease (SDS-PAGE) (fusion protein RRhANP): cleavage by OmpT protease was observed in RRhANP, RAhANP and RChANP
- cleavage efficiency by OmpT protease (fusion protein PRC): Alanine and cysteine were selected because they provided relatively high cleavage efficiency in Example 3
- Relative amount of 4.9 kDa peptide (HPLC; 25 C, 60 min, pH 7.0) (relative to PRR = 100) (fusion protein PRR-10A): 160
- cleavage by OmpT protease (SDS-PAGE) (fusion protein PRR-10A): the cleavage by OmpT protease was confirmed in the fusion proteins other than PRR-1A
- Relative amount of 4.9 kDa peptide (HPLC; OmpT 2.0 U/ml, 25 C, 60 min) (relative to PRR = 100) (fusion protein PRR-4D): 2.8
- cleavage by OmpT protease (SDS-PAGE; OmpT 2.0 U/ml) (fusion protein PRR-4D): the cleavage by OmpT protease was observed in all of the fusion proteins
- cleavage by OmpT protease (SDS-PAGE) (fusion protein PKD): PKD and PKE were not cleaved by OmpT protease
- cleavage by OmpT protease (SDS-PAGE) (fusion protein PKA): PKA and PKS forming no basic amino acid pair were cleaved by OmpT protease
- cleavage at sites inside the α-hANP moiety (fusion protein RChANP): arginine-arginine alone was slightly cleaved, among the four sites (arginine-arginine, arginine-methionine, arginine-isoleucine and arginine-tyrosine) existing in α-hANP molecule ... while the other bonds were scarcely cleaved
- cleavage by OmpT protease (SDS-PAGE) (fusion protein RChANP): cleavage by OmpT protease was observed in RRhANP, RAhANP and RChANP
- cleavage by OmpT protease (SDS-PAGE) (fusion protein PRE): In PRD and PRE, no cleavage by OmpT protease was observed
- cleavage by OmpT protease (preliminary experiments) [1]: this fusion protein is cleaved at two sites when treated with OmpT protease
- Relative amount of 4.9 kDa peptide (HPLC; OmpT 2.0 U/ml, 25 C, 60 min) (relative to PRR = 100) (fusion protein PRR-4Q): 23
- cleavage by OmpT protease (SDS-PAGE; OmpT 2.0 U/ml) (fusion protein PRR-4Q): the cleavage by OmpT protease was observed in all of the fusion proteins
- Relative amount of 4.9 kDa peptide (HPLC; 25 C, 60 min, pH 7.0) (relative to PRR = 100) (fusion protein PRR-8A): 200
- cleavage by OmpT protease (SDS-PAGE) (fusion protein PRR-8A): the cleavage by OmpT protease was confirmed in the fusion proteins other than PRR-1A
- cleavage efficiency by OmpT protease (fusion protein PRS): Alanine and serine were employed because they showed relatively high cleavage efficiency in Example 3
- cleavage by OmpT protease (SDS-PAGE) (fusion protein PRR-1A): The PRR-1A was not cleaved by OmpT protease
- cleavage by OmpT protease (SDS-PAGE) (fusion protein PKE): PKD and PKE were not cleaved by OmpT protease
- cleavage by OmpT protease (SDS-PAGE) (fusion protein RShANP): it was confirmed that RShANP could be cleaved by OmpT protease
- Relative amount of 4.9 kDa peptide (HPLC; OmpT 0.1 U/ml, 25 C, 60 min) (relative to PRR = 100) (fusion protein PRR-6N): 430
- cleavage by OmpT protease (SDS-PAGE; OmpT 0.1 U/ml) (fusion protein PRR-6N): the cleavage by OmpT protease was observed in all of the fusion proteins
- Relative amount of 4.9 kDa peptide (HPLC; 25 C, 60 min, pH 7.0) (relative to PRR = 100) (fusion protein PRR): 100
- Relative amount of 4.9 kDa peptide (HPLC; OmpT 0.1 U/ml, 25 C, 60 min) (relative to PRR = 100) (fusion protein PRR): 100
- Relative amount of 4.9 kDa peptide (HPLC; OmpT 2.0 U/ml, 25 C, 60 min) (relative to PRR = 100) (fusion protein PRR): 100
- cleavage by OmpT protease (SDS-PAGE) (fusion protein PRR): the cleavage by OmpT protease was confirmed in the fusion proteins other than PRR-1A
- cleavage by OmpT protease (SDS-PAGE; OmpT 0.1 U/ml) (fusion protein PRR): the cleavage by OmpT protease was observed in all of the fusion proteins
- cleavage by OmpT protease (SDS-PAGE; OmpT 2.0 U/ml) (fusion protein PRR): the cleavage by OmpT protease was observed in all of the fusion proteins
- Relative amount of 4.9 kDa peptide (HPLC; 25 C, 60 min, pH 7.0) (relative to PRR = 100) (fusion protein PRR-6A): 330
- Relative amount of 4.9 kDa peptide (HPLC; OmpT 0.1 U/ml, 25 C, 60 min) (relative to PRR = 100) (fusion protein PRR-6A): 310
- cleavage by OmpT protease (SDS-PAGE) (fusion protein PRR-6A): the cleavage by OmpT protease was confirmed in the fusion proteins other than PRR-1A
- cleavage by OmpT protease (SDS-PAGE; OmpT 0.1 U/ml) (fusion protein PRR-6A): the cleavage by OmpT protease was observed in all of the fusion proteins
- Relative amount of 4.9 kDa peptide (HPLC; 25 C, 60 min, pH 7.0) (relative to PRR = 100) (fusion protein PRR-5A): 89
- cleavage by OmpT protease (SDS-PAGE) (fusion protein PRR-5A): the cleavage by OmpT protease was confirmed in the fusion proteins other than PRR-1A
- cleavage by OmpT protease (SDS-PAGE) (fusion protein PKR): PKK and PKR employed as positive controls were cleaved by OmpT protease
- Relative amount of 4.9 kDa peptide (HPLC; OmpT 0.1 U/ml, 25 C, 60 min) (relative to PRR = 100) (fusion protein PRR-6R): 1000
- cleavage by OmpT protease (SDS-PAGE; OmpT 0.1 U/ml) (fusion protein PRR-6R): the cleavage by OmpT protease was observed in all of the fusion proteins
- Relative amount of 4.9 kDa peptide (HPLC; 25 C, 60 min, pH 7.0) (relative to PRR = 100) (fusion protein PRR-9A): 160
- cleavage by OmpT protease (SDS-PAGE) (fusion protein PRR-9A): the cleavage by OmpT protease was confirmed in the fusion proteins other than PRR-1A
- cleavage by OmpT protease (SDS-PAGE) (fusion protein PKK): PKK and PKR employed as positive controls were cleaved by OmpT protease
- cleavage at sites inside the α-hANP moiety (fusion protein RAhANP): arginine-arginine alone was slightly cleaved, among the four sites (arginine-arginine, arginine-methionine, arginine-isoleucine and arginine-tyrosine) existing in α-hANP molecule ... while the other bonds were scarcely cleaved
- cleavage by OmpT protease (SDS-PAGE) (fusion protein RAhANP): cleavage by OmpT protease was observed in RRhANP, RAhANP and RChANP
- Relative amount of 4.9 kDa peptide (HPLC; OmpT 0.1 U/ml, 25 C, 60 min) (relative to PRR = 100) (fusion protein PRR-6D): 110
- cleavage by OmpT protease (SDS-PAGE; OmpT 0.1 U/ml) (fusion protein PRR-6D): the cleavage by OmpT protease was observed in all of the fusion proteins
- OmpT protease activity (cleavage of Dynorphine A, HPLC) (Dynorphine A, P01213): 40 U/ml
- Relative amount of 4.9 kDa peptide (HPLC; OmpT 0.1 U/ml, 25 C, 60 min) (relative to PRR = 100) (fusion protein PRR-6Q): 390
- cleavage by OmpT protease (SDS-PAGE; OmpT 0.1 U/ml) (fusion protein PRR-6Q): the cleavage by OmpT protease was observed in all of the fusion proteins
- cleavage by OmpT protease (SDS-PAGE) (fusion protein PKS): PKA and PKS forming no basic amino acid pair were cleaved by OmpT protease
- cleavage by OmpT protease (SDS-PAGE) [2]: PRhANP was cleaved by OmpT protease
- cleavage by OmpT protease (SDS-PAGE) [3]: PRhCT was not cleaved thereby
- relative amount of the released α-hANP (HPLC peak at 4.7 minutes; OmpT 2.0 U/ml, 25 C, 90 min) (fusion protein RShANPR): 2.2 times as much as that of RShANP
- cleavage by OmpT protease (SDS-PAGE) (fusion protein PRD): In PRD and PRE, no cleavage by OmpT protease was observed
- Relative amount of 4.9 kDa peptide (HPLC; OmpT 2.0 U/ml, 25 C, 60 min) (relative to PRR = 100) (fusion protein PRR-4E): 2
- cleavage by OmpT protease (SDS-PAGE; OmpT 2.0 U/ml) (fusion protein PRR-4E): the cleavage by OmpT protease was observed in all of the fusion proteins
